Test results published in the RNAGym collection of RNA variant scans (doi:10.1021/acssynbio.7b00057).

B1: Pistol ribozyme (parent)
chain: GGGUCGUUGUUCCAUAAUCGCGUGGAUAUGGCACGCAAGUUUCUACCGGGCACCGUAAAUGUCCGACUGGAGCCGUUCGGGCGGCUAUAAACAGACCUCAGGCCCGAAGCGUGGCGGCACCUGCCGCCGGUGGUAAAAAAGAUCGGAAGAGCACACGUCU

Variants of: B1
Assay: aptazyme ON/OFF ratio, guanine; higher = stronger switching; co-transcriptional cleavage with and without guanine
In the case of U7G U8A G9A U11A C12U C13G, the “aptazyme ON/OFF ratio” value is reported as 1.04.
In the case of U7G U8A G9A U11A C12U C13U, the “aptazyme ON/OFF ratio” value is reported as 1.06.
For U7G U8A G9A U11A C12U C13A, the “aptazyme ON/OFF ratio” value was 1.17.
With U7G U8A G9A U11G C12A C13G the “aptazyme ON/OFF ratio” value was 1.13.
With U7G U8A G9A U11G C12A C13A the “aptazyme ON/OFF ratio” value was 1.05.
In the case of U7G U8A G9A U11G C12A C13U, the “aptazyme ON/OFF ratio” value is reported as 1.23.
For U7G U8A G9A U10C U11A C13A, the “aptazyme ON/OFF ratio” value was 1.08.
For U7G U8A G9A U10C U11A C13U, the “aptazyme ON/OFF ratio” value was 1.12.
For U7G U8A G9A U10C U11A C13G, the “aptazyme ON/OFF ratio” value was 1.07.
With U7G U8A G9A U10C U11C C12G C13A the “aptazyme ON/OFF ratio” value was 1.09.
For U7G U8A G9A U10C U11C C12G C13U, the “aptazyme ON/OFF ratio” value was 1.08.
For U7G U8A G9A U10C U11C C12G C13G, the “aptazyme ON/OFF ratio” value was 1.03.
In the case of U7G U8A G9A U10G U11G C12U C13G, the “aptazyme ON/OFF ratio” value is reported as 1.18.
For U7G U8A G9A U10G U11G C12U C13U, the “aptazyme ON/OFF ratio” value was 1.17.
In the case of U7G U8A G9A U10G U11G C12U C13A, the “aptazyme ON/OFF ratio” value is reported as 1.4.
For U7G U8A G9A U11A C12G C13G, the “aptazyme ON/OFF ratio” value was 1.09.
In the case of U7G U8A G9A U11A C12G C13A, the “aptazyme ON/OFF ratio” value is reported as 1.17.
For U7G U8A G9A U11A C12G C13U, the “aptazyme ON/OFF ratio” value was 1.14.
In the case of U7G U8A G9C, the “aptazyme ON/OFF ratio” value is reported as 1.12.
In the case of U7G U8A G9A U11C C12U, the “aptazyme ON/OFF ratio” value is reported as 1.18.
In the case of U7G U8A G9A U11C C12A, the “aptazyme ON/OFF ratio” value is reported as 1.17.
In the case of U7G U8A G9A U11C C12G, the “aptazyme ON/OFF ratio” value is reported as 1.21.
With U7G U8A G9A U10G U11C C12A the “aptazyme ON/OFF ratio” value was 1.13.
With U7G U8A G9A U10G U11C C12U the “aptazyme ON/OFF ratio” value was 1.09.
With U7G U8A G9A U10G U11C C12G the “aptazyme ON/OFF ratio” value was 1.17.
In the case of U7G U8A G9A U10C U11G C12U C13G, the “aptazyme ON/OFF ratio” value is reported as 1.14.
With U7G U8A G9A U10C U11G C12U C13U the “aptazyme ON/OFF ratio” value was 1.12.
In the case of U7G U8A G9A U10C U11G C12U C13A, the “aptazyme ON/OFF ratio” value is reported as 1.1.
With U7G U8A G9A U10C U11A C12U the “aptazyme ON/OFF ratio” value was 1.08.
In the case of U7G U8A G9A U10G C13A, the “aptazyme ON/OFF ratio” value is reported as 1.08.
For U7G U8A G9A U10G C13U, the “aptazyme ON/OFF ratio” value was 1.35.
With U7G U8A G9A U10G C13G the “aptazyme ON/OFF ratio” value was 1.2.
In the case of U7G U8A G9A U11A C13A, the “aptazyme ON/OFF ratio” value is reported as 1.06.
For U7G U8A G9A U11A C13G, the “aptazyme ON/OFF ratio” value was 1.02.
For U7G U8A G9A U11A C13U, the “aptazyme ON/OFF ratio” value was 1.12.
For U7G U8A G9A U10G C12U, the “aptazyme ON/OFF ratio” value was 1.52.
In the case of U7G U8A G9A U10G C12A, the “aptazyme ON/OFF ratio” value is reported as 1.32.
For U7G U8A G9A U10G C12G, the “aptazyme ON/OFF ratio” value was 1.09.
For U7G U8A G9A U10C U11C C12A C13A, the “aptazyme ON/OFF ratio” value was 1.07.
For U7G U8A G9A U10C U11C C12A C13G, the “aptazyme ON/OFF ratio” value was 1.25.
For U7G U8A G9A U10C U11C C12A C13U, the “aptazyme ON/OFF ratio” value was 1.08.
With U7G U8A G9A U11G C12U C13A the “aptazyme ON/OFF ratio” value was 1.22.
With U7G U8A G9A U11G C12U C13G the “aptazyme ON/OFF ratio” value was 1.2.
For U7G U8A G9A U11G C12U C13U, the “aptazyme ON/OFF ratio” value was 1.45.
In the case of U7G U8A G9A U11G, the “aptazyme ON/OFF ratio” value is reported as 1.26.
With U7G U8A G9A U11C the “aptazyme ON/OFF ratio” value was 1.03.
With U7G U8A G9A U11A the “aptazyme ON/OFF ratio” value was 1.45.
With U7G U8A G9C C13G the “aptazyme ON/OFF ratio” value was 1.02.
With U7G U8A G9C C13A the “aptazyme ON/OFF ratio” value was 1.04.
For U7G U8A G9A U11G C13G, the “aptazyme ON/OFF ratio” value was 1.03.
With U7G U8A G9A U11G C13A the “aptazyme ON/OFF ratio” value was 1.13.
With U7G U8A G9A U11G C13U the “aptazyme ON/OFF ratio” value was 1.21.
With U7G U8A G9A U10C U11C C12U C13U the “aptazyme ON/OFF ratio” value was 1.03.
With U7G U8A G9A U10C U11C C12U C13G the “aptazyme ON/OFF ratio” value was 1.02.
With U7G U8A G9A U10C U11C C12U C13A the “aptazyme ON/OFF ratio” value was 1.08.
In the case of U7G U8A G9A U10G C12A C13A, the “aptazyme ON/OFF ratio” value is reported as 1.18.
In the case of U7G U8A G9A U10G C12A C13G, the “aptazyme ON/OFF ratio” value is reported as 1.06.
For U7G U8A G9A U10G C12A C13U, the “aptazyme ON/OFF ratio” value was 1.37.
With U7G U8A G9A U10C U11G C12G C13U the “aptazyme ON/OFF ratio” value was 1.08.
In the case of U7G U8A G9A U10C U11G C12G C13A, the “aptazyme ON/OFF ratio” value is reported as 1.2.
In the case of U7G U8A G9A U10C U11G C12G C13G, the “aptazyme ON/OFF ratio” value is reported as 1.19.
In the case of U7G U8A G9A U10G U11C C13G, the “aptazyme ON/OFF ratio” value is reported as 1.08.
In the case of U7G U8A G9A U10G U11C C13A, the “aptazyme ON/OFF ratio” value is reported as 1.09.
For U7G U8A G9A U10G U11C C13U, the “aptazyme ON/OFF ratio” value was 1.05.
In the case of U7G U8A G9A U10G U11G C12A C13G, the “aptazyme ON/OFF ratio” value is reported as 1.14.
In the case of U7G U8A G9A U10G U11G C12A C13U, the “aptazyme ON/OFF ratio” value is reported as 1.17.
In the case of U7G U8A G9A U10G U11G C12A C13A, the “aptazyme ON/OFF ratio” value is reported as 1.06.
With U7G U8A G9A U10G U11A C12U the “aptazyme ON/OFF ratio” value was 0.997.
With U7G U8A G9A U10G U11A C12A the “aptazyme ON/OFF ratio” value was 1.12.
With U7G U8A G9A U10G U11A C12G the “aptazyme ON/OFF ratio” value was 1.11.
For U7G U8A G9A U11C C12A C13A, the “aptazyme ON/OFF ratio” value was 1.19.
With U7G U8A G9A U11C C12A C13G the “aptazyme ON/OFF ratio” value was 1.12.
For U7G U8A G9A U11C C12A C13U, the “aptazyme ON/OFF ratio” value was 1.1.
With U7G U8A G9A U10C U11C C13G the “aptazyme ON/OFF ratio” value was 1.02.
In the case of U7G U8A G9A U10C U11C C13U, the “aptazyme ON/OFF ratio” value is reported as 1.03.
With U7G U8A G9A U10C U11C C13A the “aptazyme ON/OFF ratio” value was 1.04.
In the case of U7G U8A G9A U10G U11C C12A C13G, the “aptazyme ON/OFF ratio” value is reported as 1.09.
In the case of U7G U8A G9A U10G U11C C12A C13A, the “aptazyme ON/OFF ratio” value is reported as 1.1.
With U7G U8A G9A U10G U11C C12A C13U the “aptazyme ON/OFF ratio” value was 1.14.
For U7G U8A G9A U10C U11A C12G C13U, the “aptazyme ON/OFF ratio” value was 1.12.
In the case of U7G U8A G9C C12U, the “aptazyme ON/OFF ratio” value is reported as 1.04.
For U7G U8A G9C C12G, the “aptazyme ON/OFF ratio” value was 1.01.
For U7G U8A G9C C12A, the “aptazyme ON/OFF ratio” value was 1.02.
